Data on 1 molecule can be found in paper PMC7072344, “Structure–Activity Relationship of HER2 Receptor Targeting Peptide and Its Derivatives in Targeted Tumor Therapy” (Biomolecules, 2020).

This assay addresses T1, human epidermal growth factor 2 (HER2) receptor (human (endogenous in MDA-MB-453, …, UniProt P04626 23-1255)).
T1 construct: HER2 (ErbB2), 185 kDa transmembrane glycoprotein, endogenous on human breast cancer cell lines; No isolated HER2 was tested; also called ErbB2; source: endogenous, on MDA-MB-453 breast cancer cells (highest HER2 expression); also on MDA-MB-435 Br and MCF-7 cells (medium HER2 expression)
The assay can be described thus: flow cytometry on cells; MDA-MB-453 cells incubated with CF-labelled peptides, 12.5 µM, 3 h, 37 °C, 5 min trypsinization; read-out percentage of CF+ live cells and mean fluorescence intensity. Particulars: one partner purified. On the technique in general: In flow cytometry, cells or beads pass a laser one at a time.

B1: CF-KAAYSLGYYNPT-NH2 (peptide)
peptide: {5(6)‑carboxyfluorescein}-KAAYSLGYYNPT-NH2
notes: combined peptide: KAAYSL followed by GYYNPT; also called cP(AA)_P(YY); cP(AA)_(YY); source: synthetic peptide (Fmoc/tBu solid phase, RP-HPLC purified)
As for B1, the “fold increase of mean fluorescence intensity over P(AA)” value is around 10 fold.
